How the values were obtained:
FASL [1] = target: T1, FASL (UniProt P48023 134-281, limits assumed); assay: ELISA, coated FASL, Ab 0.391 nM
T1 sequence (looked up): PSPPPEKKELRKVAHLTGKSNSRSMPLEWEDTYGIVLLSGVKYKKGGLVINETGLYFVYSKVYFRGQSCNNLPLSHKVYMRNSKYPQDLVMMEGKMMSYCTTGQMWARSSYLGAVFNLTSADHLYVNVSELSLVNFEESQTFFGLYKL
Experimental: (§1) In this experiment, ELISA was used to assess the binding ability of monoclonal antibodies to TL1A homologous molecules. Representative members of the TNF ligand superfamily, TNFα, LT-α, LIGHT and FASL, were selected for binding testing. 1 μg/mL of TNFα, LT-α, LIGHT or FASL was coated in a microplate with a carbonate buffer solution at pH=9.6, 100 μL per well, and the microplate was incubated at 4° C. overnight. The microplate was then washed 5 times with PBST, blocked with 300 μL/well of PBS containing 1% BSA, and was incubated at room temperature for 1 hour. After washing 5 times with PBST, about 100 μL each of the M701 monoclonal antibodies and the control antibodies were added to each well, and were incubated at room temperature for 1 hour. After washing 5 times with PBST, 100 μL of HRP-anti-human Fc (Sino Biological) was added to each well, and was incubated at room temperature for 1 hour. After washing 5 times with PBST, 100 μL of colorimetric substrate TMB was added to each well, and color was developed at room temperature for 10 minutes, followed by addition of 1M sulfuric acid to terminate the reaction. OD450 nm was recorded on a microplate reader.

TNFα [2] = target: T2, TNFα (UniProt P01375 77-233); assay: ELISA, coated TNF-α, Ab 1.563 nM
T2 sequence (P01375 77-233 limits assumed): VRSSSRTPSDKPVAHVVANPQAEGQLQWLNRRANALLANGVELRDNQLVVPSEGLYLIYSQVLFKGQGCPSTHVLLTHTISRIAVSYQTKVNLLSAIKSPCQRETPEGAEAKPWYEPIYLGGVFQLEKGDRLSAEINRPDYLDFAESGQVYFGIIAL
Experimental: as §1

LT-α [3] = target: T3, LT-α (UniProt P01374 35-205); assay: ELISA, coated LT-α, Ab 0.391 nM
T3 sequence (looked up): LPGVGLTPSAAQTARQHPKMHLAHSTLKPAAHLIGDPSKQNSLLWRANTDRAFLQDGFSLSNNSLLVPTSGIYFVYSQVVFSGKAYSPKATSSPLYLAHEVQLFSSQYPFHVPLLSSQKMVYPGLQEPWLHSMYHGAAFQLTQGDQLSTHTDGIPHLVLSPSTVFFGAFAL
Experimental: as §1

LIGHT [4] = target: T4, LIGHT (UniProt O43557 74-240, limits assumed); assay: ELISA, coated LIGHT, Ab 6.25 nM
T4 sequence (O43557 74-240 limits assumed): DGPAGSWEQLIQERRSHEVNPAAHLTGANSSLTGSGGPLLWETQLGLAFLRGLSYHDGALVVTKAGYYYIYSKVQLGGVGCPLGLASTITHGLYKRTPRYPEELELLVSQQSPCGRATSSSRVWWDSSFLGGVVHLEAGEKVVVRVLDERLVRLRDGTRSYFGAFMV
Experimental: as §1

FASL [5] = target: T1, FASL; assay: ELISA, coated FASL, Ab 25 nM
Experimental: as §1

LIGHT [6] = target: T4, LIGHT; assay: ELISA, coated LIGHT, Ab 1.563 nM
Experimental: as §1

LIGHT [7] = target: T4, LIGHT; assay: ELISA, coated LIGHT, Ab 100 nM
Experimental: as §1

TNFα [8] = target: T2, TNFα; assay: ELISA, coated TNF-α, Ab 25 nM
Experimental: as §1

FASL [9] = target: T1, FASL; assay: ELISA, coated FASL, Ab 1.563 nM
Experimental: as §1

LT-α [10] = target: T3, LT-α; assay: ELISA, coated LT-α
Experimental: as §1

LIGHT [11] = target: T4, LIGHT; assay: ELISA, coated LIGHT, Ab 0.391 nM
Experimental: as §1

LT-α [12] = target: T3, LT-α; assay: ELISA, coated LT-α, Ab 6.25 nM
Experimental: as §1

human TL1A (HuTL1A) [13] = target: T5, human TL1A (HuTL1A) (human, UniProt O95150 57-251, limits assumed, biotin-labelled in some assays (site not stated)); assay: DLS, antigen and antibody mixed in equal moles
T5 construct: Expressed in EXPI-293 cells and purified by Ni-NTA (His-tag); Described as a trimeric antigen; also called TL1A antigen; WT
T5 sequence: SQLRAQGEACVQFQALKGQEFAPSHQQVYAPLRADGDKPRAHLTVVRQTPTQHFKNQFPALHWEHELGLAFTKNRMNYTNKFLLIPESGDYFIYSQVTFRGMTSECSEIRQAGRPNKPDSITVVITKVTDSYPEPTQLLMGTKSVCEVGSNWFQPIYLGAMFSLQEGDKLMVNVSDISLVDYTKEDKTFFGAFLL
Experimental: 60 μM antigen and antibody was mixed in equal moles, incubated at room temperature for 30 minutes, and then the molecular size was detected using UNCLE or SEC.

TNFα [14] = target: T2, TNFα; assay: ELISA, coated TNF-α, Ab 0.000 nM (blank)
Experimental: as §1

TNFα [15] = target: T2, TNFα; assay: ELISA, coated TNF-α, Ab 6.25 nM
Experimental: as §1

TNFα [16] = target: T2, TNFα; assay: ELISA, coated TNFα
Experimental: as §1

FASL [17] = target: T1, FASL; assay: ELISA, coated FASL, Ab 100 nM
Experimental: as §1

FASL [18] = target: T1, FASL; assay: ELISA, coated FASL, Ab 0.000 nM (blank)
Experimental: as §1

LIGHT [19] = target: T4, LIGHT; assay: ELISA, coated LIGHT, Ab 0.000 nM (blank)
Experimental: as §1

LT-α [20] = target: T3, LT-α; assay: ELISA, coated LT-α, Ab 0.000 nM (blank)
Experimental: as §1

TNFα [21] = target: T2, TNFα; assay: ELISA, coated TNF-α, Ab 0.391 nM
Experimental: as §1

human TL1A (HuTL1A) [22] = target: T5, human TL1A (HuTL1A); assay: cell-based or functional assay
LT-α [23] = target: T3, LT-α; assay: ELISA, coated LT-α, Ab 100 nM
Experimental: as §1

LT-α [24] = target: T3, LT-α; assay: ELISA, coated LT-α, Ab 1.563 nM
Experimental: as §1

FASL [25] = target: T1, FASL; assay: ELISA, coated FASL
Experimental: as §1

FASL [26] = target: T1, FASL; assay: ELISA, coated FASL, Ab 6.25 nM
Experimental: as §1

human TL1A (HuTL1A) [27] = target: T5, human TL1A (HuTL1A); assay: cell-based or functional assay; remark: listed apart in the source
LIGHT [28] = target: T4, LIGHT; assay: ELISA, coated LIGHT, Ab 25 nM
Experimental: as §1

TNFα [29] = target: T2, TNFα; assay: ELISA, coated TNF-α, Ab 100 nM
Experimental: as §1

LIGHT [30] = target: T4, LIGHT; assay: ELISA, coated LIGHT
Experimental: as §1

LT-α [31] = target: T3, LT-α; assay: ELISA, coated LT-α, Ab 25 nM
Experimental: as §1

B1: M701-4019 (antibody, human IgG1, kappa, L234A L235A, V domains shown)
VH: ELQLQESGPGLVKPSETLSLTCAVSGVSFTDYHWAWIRQPPGKGLEWIGDINHRGHTNYNPSLKSRVTVSIDTSKNQFSLKLSSVTAADTAVYYCARDYPNFIYDYWGQGTLVTVSS
VL: DIQLTQSPGTLSLSPGERATLSCRASQSVSNYLAWYQQKPGQAPRLLIYGASRRATGIPARFSGSGSGTDFTLTISSLEPEDFAVYYCQQYAASPLTFGQGTKVEIKR
notes: Fc-engineered IgG1
FASL [1]
  OD450 nm: 0.0506
TNFα [2]
  OD450 nm: 0.057
LT-α [3]
  OD450 nm: 0.0572
LIGHT [4]
  OD450 nm: 0.0572
FASL [5]
  OD450 nm: 0.0612
LIGHT [6]
  OD450 nm: 0.0539
LIGHT [7]
  OD450 nm: 0.0942
TNFα [8]
  OD450 nm: 0.066
FASL [9]
  OD450 nm: 0.0514
LT-α [10]
  binding result: no binding (tested: 100 nM)
LIGHT [11]
  OD450 nm: 0.0528
LT-α [12]
  OD450 nm: 0.0566
Human TL1A (HuTL1A) [13]
  Ave Z-dia (nm) of the antigen-antibody complex: 18.5 nm
TNFα [14]
  OD450 nm: 0.0748
TNFα [15]
  OD450 nm: 0.0591
TNFα [16]
  binding result: no binding (tested: 100 nM)
FASL [17]
  OD450 nm: 0.0886
FASL [18]
  OD450 nm: 0.0602
LIGHT [19]
  OD450 nm: 0.0563
LT-α [20]
  OD450 nm: 0.0648
TNFα [21]
  OD450 nm: 0.0567
Human TL1A (HuTL1A) [22]
  IC50 (read off the curve); IFN-γ of human T cells with IL-12, IL-18 and exogenous human TL1A: ~0.2 nM
LT-α [23]
  OD450 nm: 0.067
LT-α [24]
  OD450 nm: 0.0602
FASL [25]
  binding result: no binding (tested: 100 nM)
FASL [26]
  OD450 nm: 0.0529
Human TL1A (HuTL1A) [27]
  IC50 (read off the curve); SEAP reporter in HEK293T/DR3-NFκB cells with soluble TL1A, OD655: ~1 nM
LIGHT [28]
  OD450 nm: 0.061
TNFα [29]
  OD450 nm: 0.105
LIGHT [30]
  binding result: no binding (tested: 100 nM)
LT-α [31]
  OD450 nm: 0.0627
